Measured values: publication PMC4141738

Biological target: endogenous PABPC1 of HEK 293T cells (human (endogenous in HEK 293T)) (UniProt P11940)
Chain of UniProt P11940 (P11940 whole entry): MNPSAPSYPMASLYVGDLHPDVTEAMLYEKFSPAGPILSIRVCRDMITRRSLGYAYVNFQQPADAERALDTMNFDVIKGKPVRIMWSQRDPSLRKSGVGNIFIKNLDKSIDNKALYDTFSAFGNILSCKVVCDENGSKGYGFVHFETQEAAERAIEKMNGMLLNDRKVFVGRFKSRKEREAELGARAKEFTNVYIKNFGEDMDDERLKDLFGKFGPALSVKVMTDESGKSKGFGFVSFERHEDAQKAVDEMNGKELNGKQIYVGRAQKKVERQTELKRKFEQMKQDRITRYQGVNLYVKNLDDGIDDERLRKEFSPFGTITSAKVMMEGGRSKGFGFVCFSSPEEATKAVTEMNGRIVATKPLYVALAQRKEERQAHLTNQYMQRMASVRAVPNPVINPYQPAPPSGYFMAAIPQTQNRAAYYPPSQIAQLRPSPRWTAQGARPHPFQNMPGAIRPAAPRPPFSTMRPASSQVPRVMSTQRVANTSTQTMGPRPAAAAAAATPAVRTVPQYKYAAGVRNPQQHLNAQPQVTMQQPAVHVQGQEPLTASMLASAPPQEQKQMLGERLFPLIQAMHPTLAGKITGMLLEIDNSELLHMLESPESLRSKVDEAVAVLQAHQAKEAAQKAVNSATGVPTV

In the case of “eIF4GI isoform d fused to MS2-HA (eIF4GId-MS2) (natural protein)”, the miniμ ter310 construct A reporter mRNA level (RT-qPCR) relative to LacZ-MS2 on tethering of eIF4GId-MS2 in HeLa cells is reported as 4 fold.

Substance “eIF4GI isoform e fused to MS2-HA (eIF4GIe-MS2) (natural protein)” has a miniμ ter310 construct A reporter mRNA level (RT-qPCR) relative to LacZ-MS2 on tethering of eIF4GIe-MS2 in HeLa cells of 4 fold.
